From the DeepSol protein solubility set come the findings set out here.

This series is described as follows: soluble on expression in E. coli; label from the status in PepcDB or PDB records.
“MGSDKIHHHHHHMSIMNFSEYQTQALKTDQIPAVEGTELMIPLLGLVGEVGSLMTEYKKHLRDGDAHKLFKEGIAEELGDMLWYISNLASKFNLNLEEIAEDNLRKCRDRWGWRDSAQIEDKGTTYIFDNDFPENESLPRQFEVEITEISKDNSIKMKAFINKKQVGNDLTDNSYTSDGYRFHDVFHFSYAAVLGWSAVTRSMLKRKRKSNSSIDEVEDGGRAIAIEEGISALIFSYAKNHGFLERVSTLDYQILKTIKNMTCHLEVSQCSLGDWEKAILMGYDVWRQVEKNRGGRVVLDLDARLITYLKKSSLCSASVEIKH”: the “soluble on expression in E. coli” value was “not soluble”.

Take “MGSDKIHHHHHHMTLWQPDPALIRRPAYQSLADQFARAIHDGRLANGARLPTHRRLADDLNLSVQTVSRAYEELIRRGLISGEIGRGSFVQTQRREPEPPYLPERLGEVIDLSILKPVCEPMHLERLKQALGWLAENLPSSSALSFRPNMVFPRHRAVAVEWLKLCGLDISAQNISLTNGATAGMTVALMSVAPPGSTVATEAIGHHTLVPLARYLGFNLQGLPIDDNGLIPEALDEACRLSDIRAVFVQPSVINPTATLMDAQRREQIAAVARKHDIAIIENDVLGPLVEDRPPPVAAFAPERTLYVTSFTKITVPGLRIGYLAAPDRYVAAVANRHLVSNWMATPLVAEIATKWVTDGTAMELVLWQRAALRRRQDIAAEVLARIDYRARRDGLHIWLQLPDDRAEEGFVAQARLQGVAIAPGTSFRISDAPWHPAVRISLGSTTEGELRAGLGVVTKLLLGDPEHLLLAI”: the “soluble on expression in E. coli” value is recorded as “not soluble”.

In the case of “MFVRLFYTLRKYGVPVTTRELIDLNRAVAEGLVFADQDEFYQLAKTILVKDERFFDKFDRAIKDYFEGIETFDLDELLKQVQKIPKEWLDLELLEKHLTPEQREALQKAGSLEELMKMLEERLREQHKKHQGGNRMIGTGGTSPFGAFGDHPEGVRIGGPGRKRSAVKVWEQRKYQNLDDDQILGTRQMQLALRRLRKFARQGAADELDVDNTIRETAKQGILNVQMVPERRNRIKVLMLFDVGGSMDSHIAQCEKLFSAAKTEFKTLEYFYFHNCLYDYVWKDNHRRQASRLETWDLFHKYGRDYRVIVVGDASMAPYELRSAGGSVEYMNDEAGEIWLRRLRQHFDKTAWLNPEEEGYWKYTQTIGLIQQLFENHMYPMSLKGIEDMTRYLS”, the “soluble on expression in E. coli” value is “not soluble”.

As to “SAAPVDLELKKAFTELQAKVIDTQQKVKLADIQIEQLNRTKKHAHLTDTEIMTLVDETNMYEGVGRMFILQSKEAIHSQLLEKQKIAEEKIKELEQKKSYLERSVKEAEDNIREMLMARRAQ”, the “soluble on expression in E. coli” value is recorded as “soluble”.

Turning to “DPRLARLLGLHTQSRSAIVQALWQYVKTNRLQDSHDKEYINGDKYFQQIFDCPRLKFSEIPQRLTALLLP”, the “soluble on expression in E. coli” value is given as “soluble”.

Turning to “MCTGLALETKDGLHLFGRNMDIEYSFNQSIIFIPRNFKCVNKSNKKELTTKYAVLGMGTIFDDYPTFADGMNEKGLGCAGLNFPVYVSYSKEDIEGKTNIPVYNFLLWVLANFSSVEEVKEALKNANIVDIPISENIPNTTLHWMISDITGKSIVVEQTKEKLNVFDNNIGVLTNSPTFDWHVANLNQYVGLRYNQVPEFKLGDQSLTALGQGTGLVGLPGDFTPASRFIRVAFLRDAMIKNDKDSIDLIEFFHILNNVAMVRGSTRTVEEKSDLTQYTSCMCLEKGIYYYNTYENNQINAIDMNKENLDGNEIKTYKYNKTLSINHVN”, the “soluble on expression in E. coli” value is “soluble”.

For “IKPTYQGHVTVIIGRNDSKSSTNEQYNDVMMSQNLTKTYAQIAESRSVASKTVSKLSNGTTIDQVSKVVSVTPETGTQIIDITANAKSPEEAADLANDFSDSFVAVSKEVYTAGDARIIDRATAPKSPIKPKK”, the “soluble on expression in E. coli” value is reported as “not soluble”.

Turning to “MTKAFDAFERAIRDAEDLLARHDAEKTVPNGHNGEVLKRAGLVMALAAWETYVKDRLQSEIDTWLQAVEGSPLGKFVRRRLEEDLKRFFNPNDERTRRIFIDYFDVDITKDWVWENYDSSTSKKVLDSLVAKRGDAAHKANTALHASAEPHKVKRDELEKGIRFLKGLVAATEKAKITK”, the “soluble on expression in E. coli” value was “not soluble”.

Regarding “MDNLMLNNKIYLEGTVVSELEFSHEMYGEGFYTFNLEVMRLSDSKDLLNITVSERLITTMDLKIGTEIVVEGQLRSYNKFIDGNNKLILTVFARNIEYCEERSKNPNEIFLDGFICKEPVYRTTPFGREIADLLLAVNRSYNKSDYIPTIAWGRNSRFCKTLEVGDNIRIWGRLQSREYQKKISETEVVKKIAYEVSISKMEKVSVESEQNESGEEISLEHHHHHH”, the “soluble on expression in E. coli” value is “not soluble”.

In the case of “MISHSELRKLFYSADAVCFDVDSTVIREEGIDELAKICGVEDAVSEMTRRAMGGAVPFKAALTERLALIQPSREQVQRLIAEQPPHLTPGIRELVSRLQERNVQVFLISGGFRSIVEHVASKLNIPATNVFANRLKFYFNGEYAGFDETQPTAESGGKGKVIKLLKEKFHFKKIIMIGDGATDMEACPPADAFIGFGGNVIRQQVKDNAKWYITDFVELLGELEE”, the “soluble on expression in E. coli” value is “soluble”.

On to “MGSDKIHHHHHHMGKQQIWKNWWENHTCTPEHYYQPEQIDEVVEIIKSANLEQKQIKVIGSGRSWSDIPCTDGYMISLDKFNQVLDIDIEQKTVIVKSGIRIYQLVDILAKHGLALSSLGSICEQSIAGAISTGTHGNSLHQGGLASSILELELVNGIGEVIKCSKSENPDLFSAALIGLGAIGIITQVKIQCCNQFWLTETLQCWNIKDVLENLDTLKKNDYCRFWYTTTNKDAIVQTFSDSQILEKTGFIHFIKRIITQIFWFLWISWHDNPAEHDSQSFTRKDESQHILCYPRFFLKLYKLSFRMTKYCQNVLISEYGIPEEMASIAMNKILSLVDRGIIKGHLRFEVRFGAAEDVWLSTAYQRPTCYIQVLFEKKNFTSTQDQNDAFIQVENIIKNLAGRPHWAKDHLYTNDDLRSTYPRWQEFLQIRQQTDPQQCFTNSYLNKIFDDVRRTA”, for which the “soluble on expression in E. coli” value is recorded as “not soluble”.

In the case of “MISPGEAVLMDGGTTTLEVARQLAGKQLQVVTNSLPIANLLVNQPQIDLMLIGGFLFPKTGVALGKTAVESLKSVHVRRLIISVGGITEDGLYNSNMLLVETEQQMFEAAEEVIVVTDSTKFGHSALAYLCPLDRVDHIVVDDGITEEWKDVIHKAGIELTVVET”, the “soluble on expression in E. coli” value was “not soluble”.

In the case of “MTASFPTRVYLLRHAKAAWAAPGERDFDRGLNEAGFAEAEIIADLAADRRYRPDLILSSTAARCRQTTQAWQRAFNEGIDIVYIDEMYNARSETYLSLIAAQTEVQSVMLVGHNPTMEATLEAMIGEDLLHAALPSGFPTSGLAVLDQDDSAASGKNRWRLIDFLAPGK”, the “soluble on expression in E. coli” value is given as “soluble”.

“MAHHHHHHMIYGKDGKYPVGEILEYNNYNLSGQSLVEKKEREKLSIDYYEDLRKAAECHRQVRKHMQAFIKPGKKMIDIAQETERKTKELILAEKLKCGWGFPTGCSLNHCAAHYTPNYGDETVLKYDDVCKLDFGVHVNGYIIDCAFTIAFNEKYDNLIKATQDGTNTGIKEAGIDARMCDIGEAIQEAIESYEIELNQKIYPIKAISNLRGHSINKYIIHGGKCVPIVRQKEKNEIMEEGELFAIETFASTGKGYVNHENECSHYMRNPEKQFVPIRLNSAKTLLKVINDNFDTLPFCNRWLDDLGQTRHFMALKTLIDLNIVEPYPPLCDIKNSFTSQMEHTILLRPTCKEVLSRGPDF”: the “soluble on expression in E. coli” value was “soluble”.

Regarding “MSLSSSCIEEVSVPDDNWYRIANELLSRADITINGSAPSDIRVKNPDFFKRVLQEGSLGLGESYMDGWWECERLDIFFSKVLRAGLENQLPHHVKDTLRILGARLINLQSKKRAWIVGKEHYDLGNDLFSRMLDPYMQYSCAYWKDADTLEAAQQAKLKLICEKLQLQPGMRVLDIGCGWGGLSQYMATHYGVSVVGVTISAEQQKMAQTRCEGLDVSILLEDYRDLNDQFDRIVSVGMFEHVGPKNYNTYFEVVDRNLKPDGLFLLHTIGSKKTDHNVDPWINKYIFPNGCLPSVRQIAEASESHFVMEDWHNFGADYDTTLMAWHERFINAWPEIAGNYNERFKRMFSYYLNACAGAFRARDIQLWQVVFTRGVENGLRVPREGHHHHHH”, the “soluble on expression in E. coli” value is reported as “soluble”.

With “MLSKSKRSCRRRETLRIGEKMSAPITNLQAAQRDAIMNRPAVNGFPHLAETLRRAGVRTNTWWLPAMQSLYETDYGPVLDQGVPLIDGVAEVPAFDRTALVTALRADQAGQTSFREFAAAAWRAGVLRYVVDLENRTCTYFGLHDQTYMEHYAAVEPSGGAPTS”, the “soluble on expression in E. coli” value is “not soluble”.

Turning to “MAHHHHHHMRNSKEGNLIVHDLDFMKRILLNDERKWGEESAPGEGRTESSHQPKIITIVLNNTLCAHSAKFIANSDVLICADGGANRLYNLCQSLATERGAIDDEGSSLKGEEDKNTALHASHTNERSHHVSGRHTISDLFNMPVEKKEKALKRPTEIVPHIICGDFDSINAHVYSYYKNKSVIFEKCANQENTDLDKCIDVIRGYIRTNDKILILGATGNRFDHTCANISCLYKNASLNSLYLIGENNFLFLLQQGSHIIHVSPDVFCKGCGILPFGGKCTIKTEGLKYNLNDECLSFDTLISSSNEVVQREVKIFNDSPVVWSAQLRGDAQSHTHS”, the “soluble on expression in E. coli” value was “soluble”.

With “MGSDKIHHHHHHMNIRIGCSGWYYPHWAGKFYPSDLNKSEWFRYYAQKFDTVEINSTFYSFPNAARVRSWVKGSPENFVFSVKVNRTITHVKRLKDCDEEIGLFYEIIGSLGKMLGCVLFQFPPSFKYSHDNLIMIEKALDQRFCNVVEFRNISWFSEDARCDLEKSDLHVVAVSSERIPLWIKEDSVVYVRLHGNVNGYATDYNEEYLTDLAQRIIDVKPQSLYVYFNNDYSGYAPKNAIMLKSIINNLIL”, the “soluble on expression in E. coli” value was “not soluble”.

On to “MADETPKVKTEPAAEVKSPLDEVKEIRKEAELTQTGSDEKKTTDPEFITVQDPNGDEPIELPTVDGVVLMTTLQASFPGATGLKYKNPKTGANRAVQVDPSGLKLIAPADGWENKTFFVIVAPQSERVRALSSADATSAKRRKVGSSDDSDSDDGRDGRSGRKRAVERDSQPVDLIVLGVDFKTTDECFQKYFEDIGTVVFCEIKRKSDGNSKGFGFVRMSSVGEQNKVLAIPQHMIDGRRCDVKVPDGRDKQGRPSISRIFVGRLTDKVDEHQLRKVFGDEAKSYIETAVVTDVFIPKPFRGFAFVTLSSAEAAERIVSKGSLTVNGLSVGLSIAQPREENNQSVGPDYGLPAGYRNRRERDRPDRRPIQNEAPLPMPFVRPPQDYSYRQQNSPLERRYWAPGDSRGPGW”, for which the “soluble on expression in E. coli” value is recorded as “not soluble”.

On to “PFMFRPRKQVFQTQGAAVSSMAQTLLPNDLASKAMGSAFTALLDANEDAQKAMKIIKTLSSLSDAWENVKETLNNPEFWKQLLSRCVQLIAGMTIAVMHPDPLTLLCLGTLTAAEITSQTSLCEEIAAKFKTIFITPPPRFPTISLFQQQSPLKQVNDIFSLAKNLDWAVKTVEKVVDWFGTWIVQEEKEQTLDQLLQRFPEHAKRISDLRNGMAAYVECKESFDFFEKLYNQAVKEKRTGIAAVCEKFRQKHDHATARCEPVVIVLRGDAGQGKSLSSQVIAQAVSKTIFGRQSVYSLPPDSDFFDGYENQFAAIMDDLGQNPDGSDFTTFCQMVSTTNFLPNMASLERKGTPFTSQLVVATTNLPEFRPVTIAHYPAVERRITFDYSVSAGPVCSKTEAGYKVLDVERAFRPTGEAPLPCFQNNCLFLEKAGLQFRDNRTKEIISLVDVIERAVARIERKKKVLTTVQTLVAQ”, for which the “soluble on expression in E. coli” value is “not soluble”.

For the sequence “MGSDKIHHHHHHMLKLCGFAASNYYNKVKLALLEKNVPFEEVLAWIGETDTTATPAGKVPYMITESGSLCESEVINEYLEAAYPQTPLLPRDPMQAGKVREIVTFLELYLELTARELYPEAFFGGKVSDNVKERQLKLLSRYVPAFAKLAKFSPYVAGDTFTLADCAAAVHLPLVSSCTKIIYGKDLLADLPVKEYLKTLSERPSVQKVNADRKANTELMLSRNK”, the “soluble on expression in E. coli” value is on record as “not soluble”.
